In PMC8287531 (2021):
Where no end group is shown, it is not given here.

Biological target: T1, talin R7R8 rod domains (UniProt Q9Y490 1359-1659)
T1 chain: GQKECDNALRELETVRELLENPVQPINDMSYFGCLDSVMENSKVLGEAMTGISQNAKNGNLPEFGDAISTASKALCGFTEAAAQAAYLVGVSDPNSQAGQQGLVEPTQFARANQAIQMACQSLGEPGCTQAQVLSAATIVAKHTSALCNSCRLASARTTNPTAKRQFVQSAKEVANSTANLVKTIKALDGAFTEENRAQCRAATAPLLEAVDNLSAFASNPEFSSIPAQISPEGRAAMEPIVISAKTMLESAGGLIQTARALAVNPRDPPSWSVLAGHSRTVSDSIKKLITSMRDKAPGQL
Assay: FP

B1: RIAM(4-30) peptide, fluorescein-labeled (peptide)
peptide: SEDIDQMFSTLLGEMDLLTQSLGVDTC
modifications: also: fluorescein-labeled, position not given here
With B1 the Kd was 3.6 µM.
